Laboratory results taken from article PMC3615900.

Columns and labels:
Conditions in all cases: reference: wild type; sites S248
14-3-3β [1] = biological target: 14-3-3β (UniProt Q9CQV8); assay: co-IP with αFlag, blot α14-3-3β
V5-14-3-3β = V5-14-3-3β (UniProt P31946); assay: co-IP with αV5, blot αFlag
14-3-3β [2] = biological target: 14-3-3β (UniProt P31946); assay: Flag-Rubicon complex purification, immunoblot

binding against the reference (14-3-3β [1]): lost
binding against the reference (V5-14-3-3β): lost
binding against the reference (14-3-3β [2]): lost
Substance: Rubicon (from UniProt Q92622) S248A
